± gives the standard deviation.
Experiment: protein stability index of a GFP-peptide fusion (GPS, HEK-293T) (PSI 1-6); higher = more stable
[1] = treatment: DMSO, c terminus: a fixed tail appended
[2] = treatment: MLN4924 1 uM, 8 h, c terminus: a fixed tail appended
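Also: 24-mer peptide tiles fused after GFP, lentivirally expressed, FACS-sorted into six equal bins by GFP/DsRed ratio, decoded by Illumina sequencing, PSI is the read-weighted mean bin number.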

Row | Sequence | protein stability index [1] | protein stability index [2] | protein stability index (treatment: DMSO, c terminus: native) | protein stability index (treatment: MLN4924 1 uM, 8 h, c terminus: native)
1 | NTELQDVQRIMVANIEEVLQRGEA [SEC22B] | 4.7 ± 0.36 | 4.71 ± 0.25 | – | –
2 | FLEALSSRYLGDSGLDDFFLDIDT [SERTAD3] | 2.4 ± 0.4 | 2.41 ± 0.39 | – | –
3 | ALADVEVKYIVERTMLDFPQHVSS [NLN] | 2.38 ± 0.36 | 2.39 ± 0.16 | – | –
4 | LLNPEKYKAKSRSPGSPVGEGTGS [ADD1] | 4.52 ± 0.26 | 4.55 ± 0.21 | – | –
5 | LKYVRGLLQTEPQNNQAKELERLI [FIS1] | 2.89 ± 0.29 | 3.02 ± 0.29 | – | –
6 | FEQTPALTKHEWTEALGCDPPLSQ [ZNF8] | 4.56 ± 0.26 | 4.6 ± 0.13 | – | –
7 | GRDALLDQIRQGIQLKSVADGQES [WASL] | 5.43 ± 0.36 | 5.22 ± 0.63 | – | –
8 | FHIMKRKFTNKEWETIRSFKDEWT [AASDHPPT] | – | 2.09 ± 0.16 | – | –
9 | RYEQGRFWPHLKASNWSTTGFGQG [HDAC6] | 2.54 ± 0.28 | 2.6 ± 0.12 | – | –
10 | KTKYILLMDIVPADDHRYKFADNK [TBX5] | 2.08 ± 0.22 | 2.3 ± 0.42 | – | –
11 | SPALSQGHVTGSKTTKDATGPDT [PSD2] | – | – | 5.33 ± 0.28 | 5.43 ± 0.23
12 | RQVWLLFEYPESSGPARVIAIVSV [KCNA1] | 3.25 ± 0.45 | 2.64 ± 0.48 | – | –
13 | AAQPMQPLPESLASLHPSVSPGSP [PLAGL1] | 5.2 ± 0.12 | 5.17 ± 0.29 | – | –
14 | ISESGGLNWKMTLCLLVAWSIVGM [SLC6A17] | 2.71 ± 0.28 | 2.83 ± 0.67 | – | –
15 | SVVTTARMQVLKRQVQSLMVHQRK [SMARCE1] | 2.79 ± 0.14 | 2.94 ± 0.27 | – | –
16 | CNLWDSHHPEVPQRILRIMCRLEE [HDAC6] | 2.55 ± 0.16 | 2.35 ± 0.28 | – | –
17 | PTVHVEVHQRGSSTAKKEDINLSV [TRIP13] | 4.83 ± 0.2 | 4.84 ± 0.29 | – | –
18 | ENIDSLYNVNLSKGRAALSATVPR [SCNN1D] | 3.94 ± 0.39 | 4.04 ± 0.24 | – | –
19 | QLDREAQARHQLVLTAVDGGTPAR [PCDHGC5] | 4.59 ± 0.1 | 4.76 ± 0.18 | – | –
20 | VQDWYHFHYVDILALLPAAWEDSH [SCNN1D] | 2.77 ± 0.61 | 2.67 ± 0.67 | – | –
21 | LIQPINHTTLQCLAARVIVNHRIY [FEM1C] | 2.39 ± 0.3 | 2.38 ± 0.43 | – | –
22 | LINSNVSMVDLTSVTLEDVTPKKS [FAN1] | 3.34 ± 0.25 | 3.55 ± 0.17 | – | –
23 | ELKMRAIQAEERLDMEKRRCRQSL [LRRC45] | 3.92 ± 0.22 | 4.13 ± 0.11 | – | –

Row | Sequence | protein stability index [1] | protein stability index [2] | protein stability index (treatment: DMSO, c terminus: native) | protein stability index (treatment: MLN4924 1 uM, 8 h, c terminus: native)
24 | EFSSVGTEMIITKAGRRMFPACRV [TBX6] | 2.7 ± 0.21 | 2.66 ± 0.34 | – | –
25 | YLRKGRGETRICKIYDSPCLPEAE [RAD51] | 3.65 ± 0.22 | 3.83 ± 0.28 | – | –
26 | KIIQLGLTFMNEQGEYPPGTSTWQ [CNOT7] | 2.23 ± 0.2 | 2.19 ± 0.18 | – | –
27 | PVRAYDFLLKFLLVGDSDVGKGEI [RAB40B] | 2.28 ± 0.3 | 2.62 ± 0.58 | – | –
28 | AQHSLMDGYCMFNHVAVAARYAQQ [HDAC6] | 2.1 ± 0.25 | 1.92 ± 0.39 | – | –
29 | VSLGATGGPPAGPGGVYAGPEPPP [JUNB] | 4.61 ± 0.094 | 4.46 ± 0.31 | – | –
30 | VGTAAVNMCLVATGGADAYYEMGI [IMPA1] | 2.71 ± 0.045 | 2.73 ± 1.1 | – | –
31 | DVVKTQRQVALGAMEAVRVNPLHV [SLC25A39] | 3.05 ± 0.22 | 3.23 ± 0.13 | – | –
32 | ENERVRGLETGDWGGAPKEGSIWR [ZSWIM9] | 4.29 ± 0.32 | 4.16 ± 0.28 | – | –
33 | KMREFTKTIKRPFGVKYNPYTRSI [TPH1] | 2.25 ± 0.21 | 2.31 ± 0.17 | – | –
34 | RTYGEPESAGPSRAVRQSVTSFPD [EMD] | 4.92 ± 0.24 | 4.94 ± 0.14 | – | –
35 | SPASHVDVDLTIHGRHIDCPATWG [FOXJ1] | 3.14 ± 0.2 | 3.28 ± 0.19 | – | –
36 | KQGELPREVRRAQARLLNPSATRA [NOP53] | 4.42 ± 0.46 | 4.47 ± 0.19 | – | –
37 | QSDVGVAVFENKIYVVGGYSWNNR [KLHL13] | 2.19 ± 0.34 | 2.26 ± 0.12 | – | –
38 | YVDSPALTNIWMARTCAKQNINAP [C22orf31] | 3 ± 0.59 | 2.36 ± 0.24 | – | –
39 | ILEVLRSSPMVQVDEKGEKVRPSH [LARP4] | 3.61 ± 0.27 | 3.71 ± 0.12 | – | –
40 | NVCDDYDVTCNEFFFDRNPGAFGT [KCNG1] | 3.44 ± 0.25 | 3.65 ± 0.12 | – | –
41 | PLNPKPHKKKSPGEKPHRCPQCGK [ZNF449] | 4.24 ± 0.12 | 4.49 ± 0.35 | – | –
42 | GRGLKSHAYIHSVQFSHHVFLNLH [USP39] | 2.84 ± 0.45 | 2.62 ± 0.65 | – | –
43 | DINNNFPDLNTLLWEAEDRQNVPR [CPXM2] | 3.78 ± 0.35 | 4.15 ± 0.2 | – | –
44 | VQTEDQYQFSYRAALEYLGSFDHY [PTPRD] | 2.22 ± 0.26 | 2.51 ± 0.22 | – | –
45 | AEEKERRRKEYDALKAAKREQEKK [LRRC59] | 5.31 ± 0.26 | 5.39 ± 0.12 | – | –
46 | PEERLEKQNEKLNNQEEETEFKEL [CCDC89] | 5.67 ± 0.11 | 5.48 ± 0.29 | – | –

Row | Sequence | protein stability index [1] | protein stability index [2] | protein stability index (treatment: DMSO, c terminus: native) | protein stability index (treatment: MLN4924 1 uM, 8 h, c terminus: native)
47 | DPTQRILYRDVMLETFGHLLSIGP [ZNF8] | 2.21 ± 0.23 | 2.25 ± 0.22 | – | –
48 | KEDASEFQILKYLFQIDVYDFMNS [MIA2] | 2.5 ± 0.65 | 2.76 ± 0.24 | – | –
49 | TKKKKKTIVTDVFQGSMRIFTKKL [USP39] | 2.49 ± 0.26 | 2.83 ± 0.11 | – | –
50 | MLWVQRKRRRKETSECPSDKDKSP [C10orf62] | 3.2 ± 0.42 | 3.66 ± 0.43 | – | –
51 | SEMWDIFLVRLLMAMAVMLYYSNF [MFSD9] | 3.25 ± 0.38 | 3.36 ± 0.33 | – | –
52 | QLVKKLNDSDHQSSTSPLMEGTPT [VPS39] | 4.87 ± 0.22 | 4.9 ± 0.09 | – | –
53 | KMGLQERSETFLEVWGNALLRPPV [DNAAF3] | 2.52 ± 0.55 | 2.49 ± 0.34 | – | –
54 | LSRLSLMAMPNGFHEDGPQGPGGD [PSD2] | 4.89 ± 0.15 | 4.62 ± 0.13 | – | –
55 | EEINKNISDFGRQQLLPPFPSLHQ [EHMT1] | 3.08 ± 0.27 | 3.64 ± 0.4 | – | –
56 | NQHGIILKYIGMAKREINKLLKQK [ARL6IP1] | 1.93 ± 0.39 | 2.16 ± 0.32 | – | –
57 | ATHILVRQQGNPGHRSIYLALKLP [ADAMTS4] | 2.92 ± 0.62 | 2.1 ± 0.35 | – | –
58 | SAPEQELLVQDATPVSNSLLPEKA [GFOD1] | 5.29 ± 0.28 | 5.4 ± 0.26 | – | –
59 | GSSIPWNHLPDPEIFRQRFRQFGY [ZNF24] | 2.49 ± 0.25 | 2.66 ± 0.14 | – | –
60 | GLALESSSGLQDVTGPDNGVRESE [NFE2L1] | 5.57 ± 0.36 | 5.53 ± 0.28 | – | –
61 | KALEILRKDFSELRSAGVEQLMYI [FAM50A] | 2.55 ± 0.31 | 2.38 ± 0.49 | – | –
62 | DYRQEQPETFWIQRAPQLPTWWPL [SPAG8] | 2.48 ± 0.15 | 2.57 ± 0.19 | – | –
63 | CVHPRGGVIQSVSSWKHGSGTQYV [C18orf25] | 2.58 ± 0.42 | 2.32 ± 0.39 | – | –
64 | LLFCCQCVDVVFYNPDLKKVVEAH [RHOBTB3] | 2.4 ± 0.14 | 3.01 ± 0.52 | – | –
65 | SVGDPCGGAICGGPDHRLRLWRLF [SLC25A25] | 2.35 ± 0.59 | 2.62 ± 0.21 | – | –
66 | WYVCRTQGVEGDHCVTSDPATSPL [TRIM35] | 3.15 ± 0.18 | 2.98 ± 0.29 | – | –
67 | MLKFLAKGEVPKGSCEDEPMDSTM [ATE1] | 4.22 ± 0.3 | 4.36 ± 0.092 | – | –
68 | DNIREAFQIYDKEASGYVDRDMFF [EFHC1] | 3.5 ± 0.29 | 3.42 ± 0.18 | – | –
69 | GLALGGGLELALACDIRVAASSAK [AUH] | 2.67 ± 0.4 | 2.9 ± 0.23 | – | –

Row | Sequence | protein stability index [1] | protein stability index [2] | protein stability index (treatment: DMSO, c terminus: native) | protein stability index (treatment: MLN4924 1 uM, 8 h, c terminus: native)
70 | FRNIKQEPFSARVLVLCVFNSILP [SOAT1] | 2.9 ± 0.35 | 2.87 ± 0.59 | – | –
71 | TIAQSLEHSWIKAIRRRNVRGEDS [DAPK3] | 3.64 ± 0.41 | 3.4 ± 0.15 | – | –
72 | VDLVDESGYVSGYKHAGTYDQKVQ [TPPP] | 4.04 ± 0.32 | 4.01 ± 0.17 | – | –
73 | ENDSTPTVSTSEVTSQQEPQIPVD [TAF7L] | 5.53 ± 0.2 | 5.59 ± 0.26 | – | –
74 | SAPPTSRTSSGNVWVTHEEMETLE [PPFIA4] | 5.12 ± 0.29 | 4.88 ± 0.39 | – | –
75 | EAGASLVDQKLELNIVPRTKVVYL [PI4K2A] | 2.29 ± 0.26 | 2.34 ± 0.47 | – | –
76 | RVMMASASDYFKAMFTGGMKEQDL [KLHL13] | 2.91 ± 0.58 | 2.82 ± 0.091 | – | –
77 | LCLLVAWSIVGMAVVKGIQSSGKV [SLC6A17] | 2.76 ± 0.49 | 2.84 ± 0.21 | – | –
78 | CCTHNNSATLSWKQPPLSTVPADG [TRIM9] | 3.09 ± 0.073 | 3.02 ± 0.088 | – | –
79 | PQDSGTAAWKGRVLLPETQKRQQL [C22orf31] | 4.44 ± 0.17 | 4.27 ± 0.29 | – | –
80 | EALGFSWHDTCFVCAICQINLEGK [PDLIM7] | 2.48 ± 0.82 | 1.63 ± 0.26 | – | –
81 | TDQLEFTVEPRLLVADLLYWKDTR [RTN2] | 2.43 ± 0.23 | 2.54 ± 0.33 | – | –
82 | NRNQRIVQLIQDTRIHILPSMNPD [CPN1] | 2.95 ± 0.12 | 3 ± 0.25 | – | –
83 | MTKTVQYQNELHKFLIWDTAGQER [RAB22A] | 3.03 ± 0.23 | 3.14 ± 0.17 | – | –
84 | LESVNHCHLNGIVHRDLKPENLLL [CAMK2D] | 2.85 ± 0.34 | 2.98 ± 0.41 | – | –
85 | DSVKVALLETNPYLLALTIIVSIV [CLPTM1] | 2.08 ± 0.28 | 2.3 ± 0.14 | – | –
86 | HSSELTEQKLRACLEGSINEHSAH [RPAIN] | 4.55 ± 0.26 | 4.44 ± 0.12 | – | –
87 | AVAHKTPRCPGSVNEKLPQREGTG [SMOC2] | 5.13 ± 0.47 | 5.33 ± 0.12 | – | –
88 | LKNSNYESIQQTARSIAEQAHELA [PPTC7] | 3.91 ± 0.54 | 3.78 ± 0.26 | – | –
89 | TSDVYSSDAAFGGILERYWLSSRA [MYORG] | 2.62 ± 0.11 | 2.47 ± 0.092 | – | –

From the supplement of paper PMC10567573
